The supplement of paper PMC9170038

System: MS2 coat protein
Assay: apparent KD of MS2 coat protein; designed switch direction (-1 OFF switch, 1 ON switch): -1; higher = weaker reporter binding
Method in brief: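 Three titration conditions were used: no input, 200 uM small-molecule ligand, and an oligonucleotide input. In each, SNAP-549-labelled MS2 coat protein was raised from 0.7 or 1.5 nM, doubling, to 3 µM over designed RNA switches transcribed on Illumina chips by stalled E. coli RNA polymerase. Curve fits of normalised cluster fluorescence gave values whose per-design median over clusters is the apparent KD.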

[1] = input ligand: microRNA oligo, concentration not stated

Sequence | apparent KD of MS2 coat protein (input ligand: FMN 200 uM) [µM] | apparent KD of MS2 coat protein (input ligand: none) [µM] | apparent KD of MS2 coat protein [1] [µM] | apparent KD of MS2 coat protein (Eterna round: R95, input ligand: microRNA oligo, concentration not stated) [µM]
UCUUAUAGAGGAUAUACAGAUUAUUACAUGAGGAUCACCCAUGUUCUUCAAUGUAUAUAUGUAGAAGGCUAAGGAU [Mat - Exclusion 5 - JL Mod - D9] (Eterna round: R97, puzzle: Exclusion 5) | 0.316 | 0.111 | – | –
UCUUCACAUGAGGAUCACCCAUGUCAGGAUAUGCUCCCGAGUCACCUUAUCAUGGGACGCAGAAGGGACAUUAU [EX1 B.3] (Eterna round: R97, puzzle: Exclusion 1) | 0.043 | 0.0198 | – | –
UGACCUUUUGUCAGGAUAUAUAUACGUGUUGGUAGGUAGAAGGGACAUGAGGAUCACCCAUGUGGUUUGAGCUA [Eternabot (L1) Solution 74] (Eterna round: R97, puzzle: Brourd's mod of Exclusion 4) | 0.433 | 0.155 | – | –
UGACGCACGCGAGGAUAUUCCCACGAAACAAACAACGAAGGGUACAUGAGGAUCACCCAUGUGGCGAAGAAGGCGCGCGUCCGG [Eternabot solution 1] (Eterna round: R96, puzzle: Exclusion NG 2) | 0.923 | 1.31 | 0.503 | –
UGACGUCAUGUCAGGAUAUAGGCGAUGCGUGUCUUCUAGAAGGGACAUGAGGAUCACCCAUGUAAACUUUUGGU [Eternabot (L1) Solution 56] (Eterna round: R97, puzzle: Brourd's mod of Exclusion 4) | 0.136 | 0.148 | – | –
UGAGUAGAUCCGAAGGGAGACAUGAGGAUCACCCAUGUAUUAAGUUUUUAUGCUCGUCGCCUACGUAACCGUAGGAC [Eternabot (Original) Solution 2] (Eterna round: R97, puzzle: Sensor, turn-off variant 1) | 0.344 | 0.36 | – | –
UGAGUGCUGCGAGGAUAUACAUGAGGAUCACCCAUGUGGAUGUCUGAGGCUUUGCCUCAGACGAUGUAGAAGGCGCAGUACUCU [JL ENG2 1.20] (Eterna round: R96, puzzle: Exclusion NG 2) | 0.1 | 0.0221 | 0.0152 | –
UGAUCAGACCGAGGAUAUACAUGGAGGACGCACGUGAGUGCGUCCACUACAUGAGGAUCACCCAUGUAGAAGGCGGUCUGAUCU [JL ENG2 1.92] (Eterna round: R96, puzzle: Exclusion NG 2) | 1.1 | 0.144 | 0.13 | –
UGAUCAGACCGAGGAUAUAUAUGUAGGACCCACGUGAGUGGGUCCAGAACAUGAGGAUCACCCAUGUAGAAGGCGGUCUGAUCU [JL ENG2 1.88] (Eterna round: R96, puzzle: Exclusion NG 2) | 0.019 | 0.0162 | 0.0115 | –
UGAUCCCAUGUCAGGAUAUAGAGGCGGUAGCCUGGCUAGAAGGGACAUGAGGAUCACCCAUGUCGGUUCUUGCC (puzzle: Brourd's mod of Exclusion 4) | – | – | – | 0.0306
UGAUCUAGCGGAGGAUAUACAUGAGGAUCACCCAUGUAGACUCUAUGACCGUAGUCGUGGAGAGUGUAGAAGGCCGCUAGAUCU [JL ENG2 3.75] (Eterna round: R96, puzzle: Exclusion NG 2) | 0.0166 | 0.0131 | 0.00879 | –
UGAUCUAGCGGAGGAUAUACAUGAGGAUCACCCAUGUAGAUGAGUGUACCGUAGUGCACUAUUGUGUAGAAGGCCGCUAGAUCU [JL ENG2 3.63] (Eterna round: R96, puzzle: Exclusion NG 2) | 0.0699 | 0.0198 | 0.0137 | –
UGAUCUAGCGGAGGAUAUACAUGAGGAUCACCCAUGUAUAGGCUAUGACCGUAGUCGUGGCACGUGUAGAAGGCCGCUAGAUCU [JL ENG2 3.77] (Eterna round: R96, puzzle: Exclusion NG 2) | 0.0127 | 0.0128 | 0.0081 | –
UGAUGGAGGCAGGAUAUUUUGAUGGAUACGAUAAAAGAAGGGCUGACAUGAGGAUCACCCAUGUGGAUAGCUCA [Eternabot (L1) Solution 39] (Eterna round: R97, puzzle: Exclusion 6) | 0.0178 | 0.0144 | – | –
UGAUUCGGAGGAUAUACAUGAGGAUCACCCAUGUUACCGGAAGGUAGGAGAGGUCGCCGUAGAAGGCUGCACAU [Eternabot (Original) Solution 7] (Eterna round: R97, puzzle: Exclusion 3) | 0.0304 | 0.0315 | – | –
UGCAGACGAGGAUAUAGAUUUGAUAACAUGAGGAUCACCCAUGUGAUCGAUAGAUCAGAUUUAGAAGGUGUCUGCA [E5/8-B2] (Eterna round: R97, puzzle: Exclusion 5) | 0.579 | 0.431 | – | –
UGCAGACGAGGAUAUGAUCAAUAAUACAUGAGGAUCACCCAUGUAAUACUGAUCCAUGGAUCAGAAGGUGUCUGCA [E5/5-B2] (Eterna round: R97, puzzle: Exclusion 5) | 0.0195 | 0.0175 | – | –
